{"source": "patent US20090111754", "key": {"[1]": {"target": "T1, p65-P8", "T1 chain": "NGLLSGDEDFSA"}, "[2]": {"target": "T2, p65-P6", "T2 chain": "NGLLSGDEDFSS"}, "[3]": {"target": "T3, p65-P1", "T3 chain": "QLRRPSDRELSE"}, "[4]": {"target": "T4, p65-P7", "T4 chain": "NGLLAGDEDFSS"}, "[5]": {"target": "p65-P2"}}}
{"protein": "IKK complex immunoprecipitated from whole-cell extracts of TNF-treated cells (protein) chain 1: MERPPGLRPGAGGPWEMRERLGTGGFGNVCLYQHRELDLKIAIKSCRLELSTKNRERWCHEIQIMKKLNHANVVKACDVPEELNILIHDVPLLAMEYCSGGDLRKLLNKPENCCGLKESQILSLLSDIGSGIRYLHENKIIHRDLKPENIVLQDVGGKIIHKIIDLGYAKDVDQGSLCTSFVGTLQYLAPELFENKPYTATVDYWSFGTMVFECIAGYRPFLHHLQPFTWHEKIKKKDPKCIFACEEMSGEVRFSSHLPQPNSLCSLVVEPMENWLQLMLNWDPQQRGGPVDLTLKQPRCFVLMDHILNLKIVHILNMTSAKIISFLLPPDESLHSLQSRIERETGINTGSQELLSETGISLDPRKPASQCVLDGVRGCDSYMVYLFDKSKTVYEGPFASRSLSDCVNYIVQDSKIQLPIIQLRKVWAEAVHYVSGLKEDYSRLFQGQRAAMLSLLRYNANLTKMKNTLISASQQLKAKLEFFHKSIQLDLERYSEQMTYGISSEKMLKAWKEMEEKAIHYAEVGVIGYLEDQIMSLHAEIMELQKSPYGRRQGDLMESLEQRAIDLYKQLKHRPSDHSYSDSTEMVKIIVHTVQSQDRVLKELFGHLSKLLGCKQKIIDLLPKVEVALSNIKEADNTVMFMQGKRQKEIWHLLKIACTQSSARSLVGSSLEGAVTPQTSAWLPPTSAEHDHSLSCVVTPQDGETSAQMIEENLNCLGHLSTIIHEANEEQGNSMMNLDWSWLTE chain 2: MSWSPSLTTQTCGAWEMKERLGTGGFGNVIRWHNQETGEQIAIKQCRQELSPRNRERWCLEIQIMRRLTHPNVVAARDVPEGMQNLAPNDLPLLAMEYCQGGDLRKYLNQFENCCGLREGAILTLLSDIASALRYLHENRIIHRDLKPENIVLQQGEQRLIHKIIDLGYAKELDQGSLCTSFVGTLQYLAPELLEQQKYTVTVDYWSFGTLAFECITGFRPFLPNWQPVQWHSKVRQKSEVDIVVSEDLNGTVKFSSSLPYPNNLNSVLAERLEKWLQLMLMWHPRQRGTDPTYGPNGCFKALDDILNLKLVHILNMVTGTIHTYPVTEDESLQSLKARIQQDTGIPEEDQELLQEAGLALIPDKPATQCISDGKLNEGHTLDMDLVFLFDNSKITYETQISPRPQPESVSCILQEPKRNLAFFQLRKVWGQVWHSIQTLKEDCNRLQQGQRAAMMNLLRNNSCLSKMKNSMASMSQQLKAKLDFFKTSIQIDLEKYSEQTEFGITSDKLLLAWREMEQAVELCGRENEVKLLVERMMALQTDIVDLQRSPMGRKQGGTLDDLEEQARELYRRLREKPRDQRTEGDSQEMVRLLLQAIQSFEKKVRVIYTQLSKTVVCKQKALELLPKVEEVVSLMNEDEKTVVRLQEKRQKELWNLLKIACSKVRGPVSGSPDSMNASRLSQPGQLMSQPSTASNSLPEPAKKSEELVAEAHNLCTLLENAIQDTVREQDQSFTALDWSWLQTEEEEHSCLEQAS", "values": [{"measurement": "phosphorylation of peptide substrate in immunocomplex kinase assay", "setting": "[1]", "result": "p65-peptides in which Ser 276, 529 or 536 were mutated into alanine did not undergo phosphorylation by the IKK complex"}, {"measurement": "phosphorylation of peptide substrate in immunocomplex kinase assay", "setting": "[2]", "result": "precipitated IKK complex can phosphorylate p65-P1 and p65-p6"}, {"measurement": "phosphorylation of peptide substrate in immunocomplex kinase assay", "setting": "[3]", "result": "precipitated IKK complex can phosphorylate p65-P1 and p65-p6"}, {"measurement": "phosphorylation of peptide substrate in immunocomplex kinase assay", "setting": "[4]", "result": "p65-peptides in which Ser 276, 529 or 536 were mutated into alanine did not undergo phosphorylation by the IKK complex"}, {"measurement": "phosphorylation of peptide substrate in immunocomplex kinase assay", "setting": "[5]", "result": "p65-peptides in which Ser 276, 529 or 536 were mutated into alanine did not undergo phosphorylation by the IKK complex"}]}
